Measured values published in US20160040149A1, “Compositions Having Dicamba Decarboxylase Activity and Methods of Use” (priority 2013, published 2016).
Where a chain is given by its changes, count along the chain named.

B1: 30 (protein)
chain: MARGKIALEEHVSTPENNRLWDSTGEANRNGSEYMQDVERRLLDRSIQLEEMAQRNIDHVILSLTSPGAQSILDKAKAVSFARDTNDFIVDNYVKPNPDKFSAFATLALQNPEAAAEELERAVKKLGMKGALINGYTNVKDSEHGLYLDDESMLVFWDKVNELNVPVYLHPREPLEGPARGIYTGYESLIGSAWGFAQETAVHAIRLMMSGLFDRYPNLNLVLGHLGEGLVHMLPRTQHRLYRQRFGCGLGKAEKPLMHYLQNNFIVTTSGHFNTHSLNNAIEVMGADRVMFSVDYPYEDIHQACDWFDPLEMDEGLKEKIAWGNASRVFNIK
modifications: Enterobacter aerogenes
B2: 33 (protein, listed as Rhizobium leguminosarum)
chain: MAQGKIALEEHFAIPETLQDSAGFVPGDYWKELSARLLDIQEKRLRLMDAHGIEKMILSLNAPAVQAIPDRAKALEISRRANDFLAEQCVKNPNRFLGFAALPLQDPDAATQELQRCVTTMGFVGALVNGFSQEGDGTTPLYYDLPQYRSFWAEVEKLNVPFYLHPRNPLPQDSRIYAGHSWLMGPTWAFAQETAVHALRLMGSGLFDEHPALRIIVGHMGEGLPYMMWRIDNRNAWVKVEKSYPAKRPIADYFNENFYITTSGNFRTQSLIDAMLEIGADRILFSADWPFENIDHAANWFDSATISEADRLKIGRTNAVSLFKLDR
B3: 27 (protein, listed as Aspergillus oryzae)
chain: MALGKIALEEAFALPRFEEKTRWWASLFSTDAETHVKEITDINKIRIEHADKHGVGYQILSYTAPGVQDIWDPVEAQALAVEINDYIAEQVRVNPDRFGAFATLSMHNPKEAADELRRCVEKYGFKGALVNDTQRAGPDGDDMIFYDNADWDIFWQTCTELDVPFYMHPRNPTGTIYEKLWADRKWLVGPPLSFAHGVSLHVLGMVTNGVFDRHPKLQIIMGHLGEHVPFDMWRINHWFEDRKKLLGLAETCKKTIRDYFAENIWITTSGHFSTTTLNFCMAEVGSDRILFSIDYPFETFSDACEWFDNAELNGTDRLKIGRENAKKLFKLDSYKDSSA
B4: 25 (protein, listed as Acidovorax avenae)
chain: MAQGKIGLEEHFAIPETLQDSAGFVPGDYWKELSLRLLDIHERRLREMDENGMEMMILSLNAPAVQAIPDTKKAVEIAVRANDFLAEQVARRPDRFQAFAALPMQDPDLATRELERCMQDLGFRGALVNGFSQVGTPENVVYYDAPQYGDFWAAVERLDAPFYLHPRNPIASWAQIYQGHPWLMGPTWAFAQETAVHALRLMASGLFDRHPGLRIILGHLGEGLPYNMWRVDHRNAWVDMPKGYPAKRKLCDYFHENFYLTTSGNFRTQTLIDALLEVGADRILFSTDWPFENVDHAAHWFDDAAISEADRLKIGRTNALSLFKLPQG
B5: 37 (protein, listed as Burkholderia gladioli)
chain: MATFSNVKKIALEEHFAIAETIEDSAGFVPPDDWVELRGRLLDIQERRLAEMDRAGIELMVLSLNAPAVQAIRDPRQAVELARRANDYLAEQVARRPDRFRAFAALPMQAPEQAIREAERCVRELGFVGALVNGFSEAEDGAELYYDLPRYRPFWAALEALEVPFYLHPRNPLAGRAPIYDGHSWLMGPTWAFGQETAVHALRLMGSGLFDAHPRLQIILGHMGEGLPYSMWRVDNRNAWVSAKPNYPAEKPIAEYFRNNFWLTTSGNFRTQTLIDAMLEIGSDRILFSADWPFENMDHAADWFDHASISENDRIKIGRGNAERLLKLGR
B6: 24 (protein)
chain: MALGKVVLEEAYERPNMKEKSNHEAGLYIAPNDRPRYMRQINDINQERLKLADAHGVGYTIISLTVPGIQGIFDKTEAERVATETNNWAAEQIKNHRDRLGAFACLSMHDPAQAANELRRCVQELGFHGALLCSFQHAGPDGETYLFYDQPKYDVFWKALTELDVPLYIHPAAPTGSILERLYAQRPALIGPPLSFANDVSLHTLGIISNGVFDRFPNLKIIIGHLGEHIPFDFWRIDHWFRDVKKPIADEEGRVMAQKSLYHYFKHNIWLTTSGHFSTPTLKYVVNEIGVDRVLFSVDYPYETTESGCNWWDHDKDAIVEAVGGVDNYYAIGRENAKKLLRLDKFHDSDAR
modifications: Aspergillus niger
B7: 28 (protein, listed as Sphingomonas paucimobilis)
chain: MARLIATEEAVTFQPVVDALRAHSRTDDASLDMILVRDVYGDEPARPAMIGRLSDVTGERLAEMDSNGVDMHLLSLTAPGVQMFDAETGTRLARIANDLMAQTVAANPTRFAGLGTFAPQDPASAAREIERVATQLRLNGLVINSHTNDLYYDDPFFHPVFEAIEASGLALYIHPRAPSKQIDRAFRDYGMNSAIWGYGIETSTNAVRMILSGLFDRFPRLKIVLGHMGEAIPFWLWRLDYMHGNATTFGGAPKLKLKPSEYFRRNFAITTSGVESHAALRYSIEVLGPENVMWAIDYPYQPMAPAVQFIRTAPIPEDVKAMVAGGNAARIFRIT
B8: 26 (protein, listed as Variovorax paradoxus)
chain: MATHMAPMKNKIALEEHFAIDLTIADSQVYARPEVWQGLKSNLLDFEQQRLEKMDEWGTEFSILSLNSPAVQGIPDAKRAIEVAQRANDVLAEQVKRHPTRFGGFAALPMQDPEASARELERCVNQLGFHGFLVNGFSQVGDENIVVYYDDARFNDFWTAAAALKKPFYMHPRDPLLAREPIYDGAHWLTGPTWAFAMETAIHALRLMSSGMFDRHPALQMILGHFGEGIPFNIWRVDHILRKGRRGMPCDKEIGEYLRSNVHITTSGNFRTPTLLSTMLEVGSDRIMYSVDYPFEKHEDAARWFDTCEISENDRQKIGRDNARKLFGLK
B9: 40 (protein, listed as Rhodococcus jostii)
chain: MAQGKIALEEHFAIPETLNDSAGFVPGTYWDELQARLLDIQDVRLKLMDEHNIETMILSLNAPAVQAIPERERAIDIARRANDVLAEECAKRPDRFRGFAALPLQDPDAAAEELRRCVTELGFVGALVNGFSQSATVDGGSTPLYYDLPRYRPFWAEVERLDVPFYLHPRNPLNQDARIYEGHPWLLGPTWAFAQETAVHALRLMASGLFDEHPGLRIVLGHMGEGIPAMLWRIDHRNAWVDVPPAYPAKRRMVDYFTENFFVTTSGNFRTQTLIDLLLELGSERVMFSTDWPFENINHAAEWFDAASISEADRLKIGRTNAATLFKLDR
B10: 38 (protein, listed as Variovorax paradoxus)
chain: MAQGKIGLEEHFAIPQTLQDSAGFVPGVYWKELSSRLLDIHDGRLRQMDEHGMEMMILSLNAPAVQAVADPVKAYELAVRANDFLAEQVAKRPDRFQAFAALPMQDPEKATQELERCMSVLGFRGALVNGFSQVGTPDNVAYYDAPQYAPFWAAAERLDAPFYLHPRNPIASWAQIYEGHPWLLGPTWAFAQETAVHALRLMASGLFDRHPGLKIILGHLGEGLPYNMWRVDHRNAWVKAPKGYPAKRKLCEYFQENFYLTTSGNFRTQTLIDAMLEVGSDRILFSTDWPFENIDHASNWFNDTSISEADRKKIGRTNAMSLFKLA
B11: 29 (protein, listed as Pseudovibrio sp.)
chain: MAGRRDFLRKSVAAGVGLTAAAQLSAGGAQATVPDTSNIPLITLEEHFTTPELQSKNTSGDKRLFSGGGSRPELLDVGAGRIADMDEAGIDIQVLSTVTPGASKITGAEGVEFTRKFNTWIAEEVIAAYPNRFRAFATLPLSSPEAAADELERSVREYGFVGTMTYGPIDGKFLDHADYAPLLARAEALGVPIYIHPNWPSPTAMQAYYDGLGDDLTSRILSGPGYGWHQEIAVQCLRLIVGGVFDRFPNLQIVVGHMGEGLPFYYWRVGEDLDRIAQKRLQKPVQQYFHDNLWITTSAFFRDELLNLALATMGEDRVMFSVDYPMASAKVGADWLRAADIPLATKEKIGSKNAMKLLGIDKI
B12: 34 (protein)
chain: MAQGKIGLEEHFAIPETLNDSAGFVPGDYWKELSRRLLDIQDDRLRQMDENGMEMMLLSLNAPAVQAVPDRKQACELAVRANDFLAEQVSRRPDRFQALAALPLQDPDFATVELTRCVNELGMRGALVNGFSQIDTPDNVVYYDAPQYASFWAAVEKLDVPFYLHPRNPIASWAQIYDGHPWLLGPTWAFGQETAVHALRLMASGLFDRHPALQIVLGHLGEGLPYSLWRIDNRNAWVKAPKTHPAKKTFRHYFQQNFHLTTSGNFHNQTLIDAILEIGADRILFSTDWPFENIDHAAKWFDSASISEADRTKIGRTNAMKLFKLVA
modifications: Cupriavidus necator
B13: 31 (protein, listed as Agrobacterium sp.)
chain: MAQGKVALEEHFAIPETLQDSAGFVPGDYWKELQHRLLDIQDTRLKLMDAHGIETMILSLNAPAVQAIPDKTKAIEIARRANDVLAEECAKRPDRFLAFAALPLQDPDAATEELQRCVNDLGFVGALVNGFSQEGDGQTPLYYDLPQYRPFWGEVEKLDVPFYLHPRNPLPQDSRIYDGHPWLLGPTWAFAQETAVHALRLMASGLFDEHPRLNIILGHMGEGLPYMMWRIDHRNAWVKLPPRYPAKRRFMDYFNENFHITTSGNFRTQTLIDAILEIGADRILFSTDWPFENIDHASDWFNATSIAEADRVKIGRTNARRLFKLDGA
B14: 36 (protein, listed as Agrobacterium sp.)
chain: B13 chain with K31T, V84A, D94N, E112Q, T139I, M251V, N302H, A328R
B15: 39 (protein, listed as Agrobacterium fabrum)
chain: B13 chain with Y29C, K31T, V84A, E112Q, Q115R, N214D, M251V, N302H, A328R
B16: 35 (protein)
chain: MAFKASRKIALEEHFAIDATVQDSAGFVPPSYWAELKRRLLDIHDRRIDEMDRNGVELMVLSLNAPTVQAVPNIKDAYDLSRRANDFLAEQIVKRPERFKGFAALPMQSPDLAARELERCVKELNFVGALVNGFSQVEESGTALYYDLPQYRQFWSVVQALDVPFYLHPRNPLPAHAPIYEGHPWLLGPTWAFGQETAVHALRLMGSGLFDEYPELKIILGHMGEGLPYSMWRIDNRNAWVETQPNYPAKKRIAEYFHKNFWLTTSGNFRTQTLIDAMLEIGSDRILFSTDWPFENVDHAAQWFDDAAISENDRIKIARTNAARLFKLEP
modifications: Burkholderia sp

assay: Saturation mutagenesis of SEQ ID NO:109: dicamba decarboxylation activity of point mutants (CO2 released), fold of backbone (Tables 7, 8, Megatable 1); settings: decarboxylation activity (CO2 released) of point mutant vs unmutated backbone protein; backbone SEQ ID NO: 109

Going from B1 to B2, the “Fold Activity” value falls from 2 fold to 1.6 fold.

B3 and B4 are the same in “Fold Activity” value: 1 fold for the first, 1 fold for the second.

B5 and B6 are the same in “Fold Activity” value: 1.6 fold for the first, 1.6 fold for the second.

B7 and B8 are the same in “Fold Activity” value: 1.2 fold for the first, 1.2 fold for the second.

Compared with B9, B10 is higher in “Fold Activity” value: 1.4 fold for the first, 1.8 fold for the second.

Compared with B11, B12 is higher in “Fold Activity” value: 1.5 fold for the first, 1.6 fold for the second.

Compared with B13, B14 is higher in “Fold Activity” value: 1.7 fold for the first, 2 fold for the second.

Compared with B15, B16 is higher in “Fold Activity” value: 1.6 fold for the first, 2.2 fold for the second.
